Assay [1] deals with T1, hVISTA-Fc (produced in house) (human, UniProt Q9H7M9 33-194, limits assumed).
T1 construct: Analyte in the SPR of the nanobodies; not shown: Fc
T1 sequence (looked up): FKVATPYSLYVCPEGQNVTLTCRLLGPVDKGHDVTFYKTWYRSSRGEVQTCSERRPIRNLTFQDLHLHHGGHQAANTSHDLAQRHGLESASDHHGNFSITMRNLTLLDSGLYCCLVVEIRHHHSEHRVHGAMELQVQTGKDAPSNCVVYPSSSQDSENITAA
Description: SPR (BIAcore T200), single-cycle kinetics, Nb captured on anti-His chip, hVISTA-Fc injected at 1.9, 3.8, 7.5, 15, 30 nM, 1:1 fit. How it is done: Binding kinetics of mAbs and Nbs to hVISTA and mVISTA were obtained by surface plasmon resonance (SPR) using a BIAcore T200 (Cytiva) and HBS running buffer (20 mM of HEPES pH 7.4, 150 mM NaCl, 0.005% Tween-20, 3.4 mM EDTA). Briefly, anti-histidine antibodies were immobilized on a CM5 chip (29149604; Cytiva) using the His capture kit (28995056; Cytiva) following manufacture's protocol. For mAbs, VISTA was captured by flowing […] of hVISTA-COMP-his or mVISTA-COMP-his at a flow rate of 30 μL/min. Sensorgrams were collected using single-cycle kinetics covering five mAb concentrations (1:2 serial dilutions). For Nbs, solutions of each nanobody ([…]) were flown over an anti-histidine-coated chip. Five concentrations (1:2 serial dilutions) of hVISTA-Fc (produced in house) were then injected at a flow rate of 30 μL/min. KD, Kₒₙ, and Koff were calculated by analyzing the sensorgrams with a 1:1 Langmuir binding model²³ after subtracting reference sensorgrams.

Assay [2] has as its target T2, human VISTA on primary human immune cells (CD14+CD16- classical monocytes of PBMCs) (human, UniProt Q9H7M9 33-311).
T2 construct: whole, on cells; Native protein on donor cells; also called hVISTA
T2 sequence (looked up): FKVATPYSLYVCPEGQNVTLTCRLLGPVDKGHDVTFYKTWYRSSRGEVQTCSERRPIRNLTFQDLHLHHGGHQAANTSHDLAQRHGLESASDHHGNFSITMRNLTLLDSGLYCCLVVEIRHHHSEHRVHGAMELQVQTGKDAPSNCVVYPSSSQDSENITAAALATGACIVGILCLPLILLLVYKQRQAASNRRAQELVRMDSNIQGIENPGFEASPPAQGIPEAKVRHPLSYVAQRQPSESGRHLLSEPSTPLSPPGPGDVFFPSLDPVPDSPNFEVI
Description: flow cytometry on human PBMC, gate CD14+CD16- monocytes, ΔMFI against control, 5 donors. On the procedure:
PBMCs had their Fc receptors blocked with Human TruStain FcX (422301; BioLegend) then incubated with 2.5 μg of mAb, mouse IgG1 (401408; BioLegend), or rat IgG2a (400565; BioLegend) or 15 μg Nb for 1 hour at 4° C. After washing with PBS, the PBMCs were incubated with secondary antibodies (1 μL; FITC anti-mouse IgG1, FITC anti-HA, or FITC anti-rat IgG2a; 406605, 901507, or MRG2a-83; BioLegend) or control FITC anti-VISTA antibodies (clone B7H5DS8; 11-1088-42; eBioscience) for 40 minutes at 4° C. A staining cocktail consisting of PE/Cy5 anti-CD11b (101210; BioLegend), APC/Cy7 anti-CD14 (325620; BioLegend), Alexa Flour 700 anti-CD16 (302026; BioLegend), PE/Cy7 anti-CD4 (317414; BioLegend), and Alexa Flour 647 anti-CD8 (301022; BioLegend) was then added to the PBMCs and incubated for 20 minutes at 4° C. Finally, the PBMCs were washed and resuspended in 3 μM DAPI (D1306; Thermo Fisher Scientific) and cytometric profiles recorded using a BD LSR II flow cytometer (BD) maintained by The Centre for Flow Cytometry & Scanning Microscopy (CCSM) at Sunnybrook Research Institute (SRI; Sunnybrook Health Sciences Centre, Toronto, ON, Canada). The same protocol was performed on murine splenocytes to measure the binding of rat anti-hmVISTA mAbs to murine immune cells.
(In general: A flow cytometer gives signals particle by particle.)

The target in assay [3] is T3, murine VISTA (mVISTA), recombinant; form not stated (mouse, UniProt Q9D659 33-191, limits assumed).
T3 construct: The SPR method names only hVISTA-Fc as analyte for the nanobodies; also called mouse VISTA
T3 sequence (looked up): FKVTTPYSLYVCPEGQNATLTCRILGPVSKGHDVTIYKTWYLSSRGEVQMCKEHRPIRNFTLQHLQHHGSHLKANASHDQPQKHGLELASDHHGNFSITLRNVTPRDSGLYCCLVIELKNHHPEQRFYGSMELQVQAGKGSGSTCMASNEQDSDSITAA
Description: SPR single-cycle kinetics (FIG. 8).

What is called Kd is the free concentration of one partner at which half of the binding sites on the other are occupied at equilibrium, for simple one-to-one binding. High values mean weaker binding, low ones tighter binding.

B1: anti-hVISTA nanobody hVISTANb7 (VHH)
VHH: QVQLQESGGGLVYPGGSLRLSCTASGFAFTNAYMNWVRQAPGKGAEWVSGITRDSNRTSYADSVKGRFTISRDNAKNTLYLQMDSLKSDDTALYYCNAEPSGWWLDDDYWGQGTQVTVSS
notes: Llama nanobody made in E. coli WK6; not shown: HA tag and His tag (pMECS vector; purified on a His-Trap column, detected with anti-HA)
Molecule B1 came in with a dissociation constant (Kd) in assay [1] of 7.5 nM. Moreover, the binding result in assay [2] is given as “binds”; in assay [3], “no binding”.

Source of the values: patent US20240293499A1 (SUNNYBROOK RESEARCH INSTITUTE, published 2024).
